Results: the supplement of paper PMC6757056
± gives the standard deviation of the averaged measurements.

B1: library; a variant is named by its letters at N, in order (parent)
chain: GCUGUCACCGAGAAACUGUGAAGUAUAUCUUAAACCUGGGCACUUAAAAGAUAUAUGGAGUUAGUAGUGCAACCUGCUCGGUCUGAUGAGUCCNNNNNNGGACGAAACAGC

How the values were obtained:
cyclic di-GMP [1] = variants of: B1; assay: normalized RNA/DNA level without ligand (relative to sTRSVctl = 100) (log10 (% of sTRSVctl)); HEK293T; ligand: cyclic di-GMP (c-di-GMP-II aptamer); higher = less ribozyme self-cleavage, higher mRNA level; settings: reporter: mCherry (pCS4076), ligand present: no
In short: (§1)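 HEK293T cells received ligand, where used, 1 h before being transfected with 4 µg per 6-well well of library plasmids encoding reporter-linked ribozyme switches. After 72 h, RNA was extracted with EDTA and sequenced. RNA level was derived from RNA reads per DNA read, normalized to a spiked-in non-cleaving sequence or the top sequences, then scaled and log-transformed. Values were ×100 then log10, the top set was 25 sequences, and the minimum was 100 DNA reads.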

cyclic di-GMP [2] = variants of: B1; assay: normalized RNA/DNA level with ligand (relative to sTRSVctl = 100) (log10 (% of sTRSVctl)); HEK293T; ligand: cyclic di-GMP (c-di-GMP-II aptamer); ligand concentration (+) RNA-Seq: 1 mM; higher = less ribozyme self-cleavage, higher mRNA level; settings: reporter: mCherry (pCS4076), ligand present: yes
In short: as §1

Variant | normalized RNA/DNA level without ligand (log10) (cyclic di-GMP [1]) | normalized RNA/DNA level with ligand (log10) (cyclic di-GMP [2])
ACUCUA | 1.6 ± 0.046 | 1.77 ± 0.081
GAUCUG | 1.708 ± 0.016 | 1.84 ± 0.07
CCAUGG | 1.65 ± 0.11 | 1.82 ± 0.02
AUUCAU | 1.74 ± 0.045 | 1.84 ± 0.11
UGUUAC | 1.735 ± 0.0055 | 1.91 ± 0.14
UGUAUU | 1.73 ± 0.016 | 1.9 ± 0.091
CCGGGC | 1.821 ± 0.013 | 1.93 ± 0.12
CUUGCG | 1.78 ± 0.02 | 1.86 ± 0.12
GUGGGU | 1.66 ± 0.081 | 1.85 ± 0.064
UGUUUU | 1.71 ± 0.032 | 1.86 ± 0.11
AUCUGU | 1.731 ± 0.012 | 1.88 ± 0.15
GCCCCC | 1.78 ± 0.026 | 1.88 ± 0.084
UAUCCU | 1.755 ± 0.013 | 1.87 ± 0.13
UUAUUA | 1.68 ± 0.069 | 1.8 ± 0.13
UGGUAG | 1.66 ± 0.035 | 1.82 ± 0.13
AAGUGC | 1.666 ± 0.0039 | 1.82 ± 0.14
UACACC | 1.6664 ± 0.0013 | 1.8 ± 0.1
CCGUGA | 1.51 ± 0.067 | 1.7 ± 0.078
AUCAUC | 1.8459 ± 0.00049 | 1.935 ± 0.0035
AGAUAG | 1.53 ± 0.11 | 1.71 ± 0.086
CAGACG | 1.681 ± 0.013 | 1.77 ± 0.088
CACCGG | 1.754 ± 0.011 | 1.89 ± 0.12
AACAUA | 1.52 ± 0.076 | 1.74 ± 0.12

Variant | normalized RNA/DNA level without ligand (log10) (cyclic di-GMP [1]) | normalized RNA/DNA level with ligand (log10) (cyclic di-GMP [2])
UGAUGC | 1.754 ± 0.01 | 1.84 ± 0.09
GAUGGG | 1.54 ± 0.081 | 1.67 ± 0.16
CCGCUA | 1.43 ± 0.078 | 1.68 ± 0.091
UCCAUG | 1.67 ± 0.021 | 1.85 ± 0.15
GAUUCU | 1.748 ± 0.014 | 1.86 ± 0.12
AAUUGU | 1.66 ± 0.061 | 1.83 ± 0.075
AAAUCG | 1.54 ± 0.12 | 1.73 ± 0.061
ACCCCA | 1.744 ± 0.012 | 1.86 ± 0.1
UGAACC | 1.78 ± 0.022 | 1.86 ± 0.12
CGUGGG | 1.62 ± 0.058 | 1.8 ± 0.073
UUAAAG | 1.65 ± 0.023 | 1.81 ± 0.11
UAAGAU | 1.597 ± 0.0022 | 1.79 ± 0.13
GAUAGG | 1.573 ± 0.0085 | 1.73 ± 0.087
GUUUCU | 1.711 ± 0.014 | 1.86 ± 0.097
CAUCCG | 1.82 ± 0.035 | 1.88 ± 0.09
UAGUCU | 1.707 ± 0.015 | 1.84 ± 0.053
AUCCUC | 1.823 ± 0.0034 | 1.94 ± 0.079
UCCAUA | 1.53 ± 0.033 | 1.74 ± 0.13
UGCUUG | 1.74 ± 0.06 | 1.88 ± 0.14
GCGAUU | 1.47 ± 0.024 | 1.69 ± 0.19
CGCUGG | 1.67 ± 0.039 | 1.78 ± 0.086
UGGGUA | 1.61 ± 0.071 | 1.78 ± 0.029
AUUAUG | 1.58 ± 0.022 | 1.77 ± 0.1

Variant | normalized RNA/DNA level without ligand (log10) (cyclic di-GMP [1]) | normalized RNA/DNA level with ligand (log10) (cyclic di-GMP [2])
UACUUC | 1.763 ± 0.0059 | 1.87 ± 0.12
CCUAGG | 1.79 ± 0.045 | 1.84 ± 0.13
CGGUCU | 1.56 ± 0.064 | 1.72 ± 0.11
CAACGU | 1.67 ± 0.025 | 1.82 ± 0.096
CAGUGG | 1.68 ± 0.022 | 1.86 ± 0.065
GGGCAA | 1.72 ± 0.046 | 1.8 ± 0.026
UUGUUG | 1.67 ± 0.053 | 1.86 ± 0.13
GAACUU | 1.68 ± 0.051 | 1.83 ± 0.096
AAUCAG | 1.61 ± 0.057 | 1.76 ± 0.026
AGCCAU | 1.718 ± 0.0054 | 1.8 ± 0.11
GAGGAA | 1.6 ± 0.055 | 1.72 ± 0.092
GCUUGA | 1.54 ± 0.08 | 1.76 ± 0.12
UCAACU | 1.707 ± 0.0018 | 1.86 ± 0.069
CUCAAG | 1.67 ± 0.022 | 1.84 ± 0.033
CCCACC | 1.728 ± 0.007 | 1.84 ± 0.097
GGGUCA | 1.828 ± 0.013 | 1.91 ± 0.16
UUACCU | 1.74 ± 0.022 | 1.86 ± 0.069
AGUGGA | 1.44 ± 0.11 | 1.62 ± 0.086
UUGCGC | 1.74 ± 0.027 | 1.83 ± 0.072
UGCUGG | 1.696 ± 0.014 | 1.87 ± 0.15
AACCAC | 1.668 ± 0.0054 | 1.81 ± 0.11
AAGGCU | 1.71 ± 0.088 | 1.83 ± 0.22
CUCUGA | 1.663 ± 0.015 | 1.81 ± 0.09

Variant | normalized RNA/DNA level without ligand (log10) (cyclic di-GMP [1]) | normalized RNA/DNA level with ligand (log10) (cyclic di-GMP [2])
UCACUC | 1.73 ± 0.068 | 1.89 ± 0.12
CAAUUC | 1.66 ± 0.019 | 1.82 ± 0.065
AUCGGU | 1.647 ± 0.0035 | 1.78 ± 0.066
ACCUAC | 1.7 ± 0.02 | 1.85 ± 0.075
GUUGCC | 1.76 ± 0.013 | 1.87 ± 0.1
UUUGCU | 1.76 ± 0.057 | 1.88 ± 0.14
GAUCAG | 1.8 ± 0.054 | 1.9 ± 0.13
GCCGUU | 1.596 ± 0.013 | 1.77 ± 0.11
UAGGUG | 1.58 ± 0.068 | 1.77 ± 0.093
GAUUGC | 1.685 ± 0.0072 | 1.84 ± 0.12
AUCCGC | 1.76 ± 0.032 | 1.88 ± 0.13
UGUGUC | 1.756 ± 0.0091 | 1.86 ± 0.1
CUAGGU | 1.7 ± 0.026 | 1.85 ± 0.14
GCUACC | 1.67 ± 0.065 | 1.84 ± 0.098
CUUCGC | 1.79 ± 0.024 | 1.83 ± 0.056
CGGGUU | 1.748 ± 0.012 | 1.82 ± 0.13
UGUCAU | 1.68 ± 0.049 | 1.81 ± 0.1
UAUUGC | 1.76 ± 0.025 | 1.87 ± 0.088
UCCCGG | 1.855 ± 0.016 | 1.93 ± 0.069
GAUUAG | 1.68 ± 0.046 | 1.8 ± 0.089
CCCGUU | 1.74 ± 0.032 | 1.87 ± 0.089
CGUGUA | 1.4 ± 0.062 | 1.56 ± 0.13
GUGUAG | 1.7031 ± 0.0011 | 1.85 ± 0.095

Variant | normalized RNA/DNA level without ligand (log10) (cyclic di-GMP [1]) | normalized RNA/DNA level with ligand (log10) (cyclic di-GMP [2])
GAGCCA | 1.79 ± 0.051 | 1.87 ± 0.1
GUACAG | 1.65 ± 0.067 | 1.78 ± 0.12
CAUUAG | 1.74 ± 0.021 | 1.84 ± 0.087
CGACGC | 1.74 ± 0.04 | 1.82 ± 0.12
CUGACG | 1.8 ± 0.028 | 1.9 ± 0.17
UUACGC | 1.739 ± 0.011 | 1.86 ± 0.1
CAUUGA | 1.602 ± 0.0057 | 1.76 ± 0.13
CGGCUC | 1.782 ± 0.0084 | 1.85 ± 0.085
GGCAAU | 1.65 ± 0.1 | 1.75 ± 0.13
UACCUG | 1.724 ± 0.0039 | 1.87 ± 0.091
GUGGAG | 1.61 ± 0.059 | 1.71 ± 0.092
UCUUAA | 1.64 ± 0.07 | 1.81 ± 0.044
AUACGC | 1.658 ± 0.014 | 1.81 ± 0.14
AGGGGC | 1.69 ± 0.1 | 1.83 ± 0.091
UGUGGC | 1.742 ± 0.0053 | 1.89 ± 0.082
CUGUCU | 1.57 ± 0.086 | 1.76 ± 0.067
CCAUAC | 1.632 ± 0.0016 | 1.78 ± 0.075
ACUUGC | 1.69 ± 0.029 | 1.83 ± 0.084
AUGGUC | 1.67 ± 0.018 | 1.81 ± 0.1
ACGUUG | 1.52 ± 0.083 | 1.74 ± 0.035
CAUAUG | 1.718 ± 0.017 | 1.81 ± 0.053
ACCUCA | 1.62 ± 0.027 | 1.77 ± 0.12
UGCGCU | 1.72 ± 0.032 | 1.89 ± 0.11
